Assay results reported in the DeepSol protein solubility set.

Experiment: soluble on expression in E. coli; label from the status in PepcDB or PDB records
For “LEADKCKEREEKIILVSSANEIDVRPCPLNPNEHKGTITWYKDDSKTPVSTEQASRIHQHKEKLWFVPAKVEDSGHYYCVVRNSSYCLRIKISAKFVENEPNLCYNAQAIFKQKLPVAGDGGLVCPYMEFFKNENNELPKLQWYKDCKPLLLDNIHFSGVKDRLIVMNVAEKHRGNYTCHASYTYLGKQYPITRVIEFITLEENKPTRPVIVSPANETMEVDLGSQIQLICNVTGQLSDIAYWKWNGSVIDEDDPVLGEDYYSVENPANKRRSTLITVLNISEIESRFYKHPFTCFAKNTHGIDAAYIQLIYPVTNFQK”, the “soluble on expression in E. coli” value was “soluble”.
With “MGSDKIHHHHHHMKKAIGILCYPSVGGSGVVATELGMKLADRGHDVHFITSSIPFRLTEYRPNITVHLVEVNQYSVFKYPPYDITLASKVAEVIDLFDLDIIHAHYAVPHAVCAELGRNMAKKKGVGVVTTLHGTDITVIGQDLEMQPAIRYGIESSDAVTAVSESLALETNITLNGQYAIEVIPNSIDESMYYPMRDERLKRHYGIEPDEIVVIHISNFRPVKRIDDTIAAFAIASKDRAMRLLLVGDGPEMGQTRRRAKELGIYDKIIFAGKQEHVAQLLAISDIHLLLSEKEAFGLVVLEAMAVGVPSVVSSAGGLPEVIQDGKTGFIVPTYDVKTAADRIGKLADDAALREELAEEGIRDTRRRFDSNQVVRAYELLYERVCAQYENA” the “soluble on expression in E. coli” value was “not soluble”.
For “MSKPSTPAPASADQNGDSATRQTAQTTETPASLLSAVGNGAPNMAGFTLNRDMVPFFPYQLQNPMLQPPQNSLENAIVHSLGTLAAQSSMFGQLCEKMLKAQEEARADQRSIREEHRAEREKADERSQQNMDKMMALVHSLVERVDRSHASSYDVVGQKNPSSSSLKPAKRVKSAVVRQSNLAKRTGAPVDAAKELKKIRDEENRNHGRSAERDNVFIGAVLVGKGSQYDKDLEKFKSFRCRTCNEVSQTKEQLVDHFSNNHAGELGARRSLRIKQTSC”, the “soluble on expression in E. coli” value was “not soluble”.
In the case of “MLAGLGEGGRVYIADLAIGPVALRDDGSIEEYELFPRSVDEAVTEALRLEEEGFTLAHEKLGKKLVESGVGSLVVESEDTARHFSKLGLSVKVEPGNNVALSARERLVSLGVELGFFGSEDDALSWLYEVEVEYTRRKLRGAAQKRDMLAAQAIRAIDDIDKTVNLFVARLREWYSIHFPELNDLVREHEDYVKIVSAVGHRDNITVERLVDLGFSEEKARRIAEAAKQSIGADLSEIDIQAVQTLARITSELYQLRRRLTEYIEQVMNEVAPNITALVGPLLGARLISLAGGLDKLARMPASTIQVLGAEKALFRALRTGGKPPKHGIIFQYPDIHRSPKWQRGKIARALAAKLAIAAKVDAFTGRFIGDKLREELRRRIAEIKKIYAKPPKRKREEKPPQPRRARPPRRGRPPRRRRGGRRLEHHHHHH”, the “soluble on expression in E. coli” value is reported as “soluble”.
With “GMNPFQNSFGGHIPQDVAGKQGENVIFIVYNLTDSPDTVDKVKDVCANFSAMIRSMRNRFPDMQFSCTMGFGADAWTRLFPDKGKPKELSTFSEIKGEKYTAVSTPGDLLFHIRAKQMGLCFEFASILDEKLKGAVVSVDETHGFRYMDGKAIIGFVDGTENPAVDENPYHFAVIGEEDADFAGGSYVFVQKYIHDMVAWNALPVEQQEKVIGRHKFNDVELSDEEKPGNAHNAVTNIGDDLKIVRANMPFANTSKGEYGTYFIGYASTFSTTRRMLENMFIGSPAGNTDRLLDFSTAITGTLFFVPSYDLLGELGE” the “soluble on expression in E. coli” value was “soluble”.
In the case of “SNRVNDPLIFIRDIKPGLKNLNVVFIVLEIGRVTKTKDGHEVRSCKVADKTGSITISVWDEIGGLIQPGDIIRLTRGYASMWKGCLTLYTGRGGELQKIGEFCMVYSEVPNFSEPNPDYRGQQNKGAQSEQKNNSMNSNMGTGTFGPVGNGVHTGPESREHQFSHAGRSNGRGLINPQLQGTASNQTVMTTISNGRDPRRAFKR”, the “soluble on expression in E. coli” value is reported as “soluble”.
For “MSTRWYPIYQRGNPQLRVFLPNFWMKLIRPTEEQPPNVVTFSVSMEMTKYDVRNYLEKIYKLPVVDVRTRIAMGETKKDQTYGYITKKDDVKLAYVTLPREESFVFPDFFSEKAEKQAKEEKSLDESKAGFRRFLDRNKKRPGTPGWFSI”, the “soluble on expression in E. coli” value was “not soluble”.
For “GMPPVWTLPRLYQHFQGAIDLELWTIPYYLTVLYSIKDPTTVPYRLIQAAVYQEMLHAQLVSNIANAYGYSPTLSAPEYVGTAVPHIDFDLDTPNPTSIFTPYSAELGPLDLTRVNTMCLIEYPEWRTQREPDLADDVTDYGSIGEFYDALRVGMEQLRGHVRGNQKQMDEFGPFYQNSPPLTVTESGDAGFLQALTLVDIIVDQGEGQTQPVETIPTEFQNTADGFQDAWPHFQRFDFIRRMPNWPGVYTGVTDPPAGSPGAEAQARLIADFAGFLDILNGMFSGGGAPPAFGVQMAKLGGDILSCWKLGAVPRYS”, the “soluble on expression in E. coli” value was “soluble”.
With “MGHHHHHHSHMPTTSRPALDVKGGTSPAKEDANQEMSSVAYSNLAVKDRKAVAILHYPGVASNGTKASGAPTSSSGSPIGSPTTTPPTKPPSFNLHPAPHLLASMQLQKLNSQYQGMAAATPGQPGEAGPLQNWDFGAQAGGAESLSPSAGAQSPAIIDSDPVDEEVLMSLVVELGLDRANELPELWLGQNEFDFTADFPSSC” the “soluble on expression in E. coli” value was “not soluble”.
For “MNVFYTREGVGDVLLVSLKPAADEERTFVRQGDVVRIMSERTGETVGYNIFSASSYYPFSGNGPLEVNEELVGVINDILAKNGFDEPIEADLSPKFVVGYVKEKTKHPNADKLSVCQVDVGGEVLQIVCGAPNVAEGQKVVVAKIGAVMPNGLVIQESELRGVRSSGMICSARELGLPNAPQEKGILVLSDEYEVGQPFVF”, the “soluble on expression in E. coli” value was “not soluble”.
With “QQRQRRKRKELTNLIRRFRNGAESLPDAVVVFRAEGNIVWCNRLAQHLLGFHWPEDSGQPISNLIRTPDFIKYLNKKDFSEPLEMRSPLNVERMLELRIVPYTEGEHLMVVRDVS” the “soluble on expression in E. coli” value was “soluble”.
For “SGRLSVSRQNFEVHKHLNRLNKPAVKSIQSPDGDIIDCVHISKQPAFDHPFLKDHKIQMGPSYTPESLFGESKVSEKPKESVNPITQLWHQNGVCSEGTIPVRRTKKEDVLRASSVKRYGKKKHLSVPLPRSADPDLINQSGHQHAIAYVEGGKFYGAKATINVWEPKVQSSNEFSLSQLWILGGSFGQDLNSIEAGWQVSPDLYGDNNTRLFTYWTSDAYQATGCYNLLCSGFIQINSQIAMGASISPVSGFHNPQYDISITIWKDPKEGHWWMQFGDGYVLGYWPSFLFSYLADSASIVEWGGEVVNMEEDGHHTTTQMGSGQFPDEGFTKASYFRNIQVVDSSNNLKEPKGLNTFTEKSNCYDVEVGKNDDWGHYFYYGGPGRNPNCQ”, the “soluble on expression in E. coli” value was “soluble”.
With “MSKFGGATAKVIKGALKVRQTRAALTLTNEAVSRIRVLLAQQNDANALKIGVRQKGCNGLTYTLEYAKDKQKFDEEVEQDGIKVWIEPKAQLSLLGSEMDYVTDKLSSEFVFRNPNIKGTCGCGESFSI” the “soluble on expression in E. coli” value was “not soluble”.
With “MKTIGLIGGMSWESTTSYYQLINETIKKELGGLHSAKILLYSVDFAEIEHYQASDDWAKSAEVLSQIAQKLEQAGADFIVICTNTMHKVAPQIQKQIAIPILHIAQATAEAILENGIQKV” the “soluble on expression in E. coli” value was “not soluble”.
With “MAHHHHHHMSKLIKLDCGVQHYAWGKEAAESYVAKMKGEGNKEGKYAELWVGTHPNCPSKTFSGQNLDDFLKNDNNMSRFVHPKQQADPRFRDTVPFLLKLLSVQTALSIQAHPNKQLAEKLHRENPEKYKDPNHKPELVVALTPFEALCCFRPLKDILEFLESASPLKTLLGPAADVLPGEVEDSEAIKHMMDIVYNTDAKKHAEALQEHAEELRSRGGEMTKEDSVFLRVLYQYPDDMGCWMVYFLNYVQLAPGEGLFLADSEPHAYLFGDSVEIMACSDNVVRAGLTPKWKDVPTLLRMLRYGTDGLERAKFERYRAPEGSEWELQHYSPPREFQDFSLYRIEHRVERQGQTHIKLPTVGLGFCVEGCGIVNGERVRLGECFLVPYGDLKIEAFGDFQIFVASMNYSLHSASHM” the “soluble on expression in E. coli” value was “soluble”.
For “MPEMPEDMEQEEVNIPNRRVLVTGATGLLGRAVHKEFQQNNWHAVGCGFRRARPKFEQVNLLDSNAVHHIIHDFQPHVIVHCAAERRPDVVENQPDAASQLNVDASGNLAKEAAAVGAFLIYISSDYVFDGTNPPYREEDIPAPLNLYGKTKLDGEKAVLENNLGAAVLRIPILYGEVEKLEESAVTVMFDKVQFSNKSANMDHWQQRFPTHVKDVATVCRQLAEKRMLDPSIKGTFHWSGNEQMTKYEMACAIADAFNLPSSHLRPITDSPVLGAQRPRNTQLDCSKLETLGIGQRTPFRIGIKESLWPFLIDKRWRQTVFH”, the “soluble on expression in E. coli” value was “not soluble”.
With “MVDLEQEFALGGRCLAFHGPLMYEAKILKIWDPSSKMYTSIPNDKPGGSSQATKEIKPQKLGEDESIPEEIINGKCFFIHYQGWKSSWDEWVGYDRIRAYNEENIAMKKRLANEAKEAKKSLLEHHHHHH” the “soluble on expression in E. coli” value was “soluble”.
For “MTGYGSLFERLNGDADKRVGWSREVSAMASVAAHLGKMLSTRAGSVQTLSDYGLPDLNDMRLSLHDSLSQARSAIEGFIEAYEPRLSDVRVVSLPRDNDQLRLAFSIEGLLEVEGFKRQVSFSACLDGSGQVKVS”, the “soluble on expression in E. coli” value was “not soluble”.
In the case of “MYKQIILACDGSEHALRAAEHATYIAKCSEETNVEVVYVVDNRTAKSDIIQGQTDLETISASRKDKLKEIEGLLKKENISYTITILHGDPGDTIVQYVNTGDIDLVIAGSRGLNTLQEMVLGSVSHKIAKRVKCPVMIVK”, the “soluble on expression in E. coli” value is reported as “not soluble”.
For “MTEDGVMKIDASTSTIKEPEPADCVILPTHTNEQVVYYKSWIAFGDNPNYLTYNRDLGYADWYGIVDCSDSPPTGPGVYKAFIYVNDLNYQESGNPLFKVTGRLKFLANKDTSDTMMKLEIFEQNRLEELRLSPKKMSDSQVIAIILFDNEETNSAICYSEQLESSIKVHLPVGSPAKAGQLILFTEYNYENDTYFPDPRPDAIEYRECEMTRIENGELLISAKAACSSIETHITYPQSVAFADTFGKVNVAAESMERGVTYRVELAINIIDSEANNVPLFKISDIGEKLTGEENEAFLRKLNDFEELQGTWEDWTPEEIAVELEPVAAAEEPADPEVEEAKIEENGVNDESLTQSESDSVFLPQIESSASSEETMSESNSAENSEKPKKTFGRMPQSLSESSSSTISSSKVGVDHSVIVLNVDNDECVGFETTQLKLMTICTAGVTVPLRPYGIFQFIAAGNNYGKTSIQTQSARVSECEGAVFSSDDVPKISANVIFSSNPKHKSYNKEVGVSDRYGFVEIPRITGDFEFGTVYSTQITMVQYGDPLKACFKAVAPLKRQFIDDLDHYLQVMGKYEDNIYQLSRKNGLGAKSISRLPNEPRNGSKHGSTKRFTTPHVTGLVVDMEKRGNYFGCVWTCFGDVVFKSTPTFSQNGGYPSVGDLVNIRVEILSPGTKDQKNLGASMTEKPASLSTTVIWRNNGFIVKAYLIMKPEKLIYSEDNNRFYEHDQLGIVVADSSIYGSDNEQSKVFEFERLRNPITLGFTTNLMNKCYWAARLPMIHREPSPPEPINKYNDENVYDDFQKGGPQSVNSYRSDRQYQEKPPMQYQSYHDPADTISIHSQDNHRPMETRSNAGTSVSSVDRKEVGVVMKKVDKNTQIVYLSGQKAAAIHHWNTHSQSTIVGNSYIFMYRPIEVHKATHYAPFEITQVVEILNTENHGRVDRSEFSSLFTFDLCNVDQRYVERLAFGEALVLRSNDVGHVVMASNVKTPLNPSMTAVEVCQTYKGKRESENLVGYCRLVYGKVPREIVDGHFSDQFVSAYYFELHEILATSNAYIVRNENLDRRNLRGNTIEEVRDDISIQKRIAHMNFGQNEQQQQQSSLSSRGPTRPYSPVGSYQSSHQNFDNRSAAHNGDGRSTSQSHHSAGGSMNHQNFYQPPVYQSSSSQQSYQPRYNGAPSGPLPPPSSQSSFNGAPAPPHYSEMSNDYNRMVRKLAELTDTAAQMIINNDIRQQIKNISPDLLDDLERNIDACQREKRHYYEKYGN”, the “soluble on expression in E. coli” value was “not soluble”.
